From publication PMC5686073, “Suppression of SRCAP chromatin remodelling complex and restriction of lymphoid lineage commitment by Pcid2” (Nature Communications, 2017)

Molecular target: T1, His-PCID2 (PCI domain-containing protein 2) (mouse, UniProt Q8BFV2 1-399)
T1 construct: PCID2 (PCI domain-containing protein 2), mouse full-length Pcid2 subcloned into pETDuet; the plasmid section names only the mouse construct; also called His-tagged PCID2; recombinant PCID2 protein; source: E. coli, purified (Ni-NTA His-resins)
T1 sequence (Q8BFV2 whole entry, the tested form may be a part): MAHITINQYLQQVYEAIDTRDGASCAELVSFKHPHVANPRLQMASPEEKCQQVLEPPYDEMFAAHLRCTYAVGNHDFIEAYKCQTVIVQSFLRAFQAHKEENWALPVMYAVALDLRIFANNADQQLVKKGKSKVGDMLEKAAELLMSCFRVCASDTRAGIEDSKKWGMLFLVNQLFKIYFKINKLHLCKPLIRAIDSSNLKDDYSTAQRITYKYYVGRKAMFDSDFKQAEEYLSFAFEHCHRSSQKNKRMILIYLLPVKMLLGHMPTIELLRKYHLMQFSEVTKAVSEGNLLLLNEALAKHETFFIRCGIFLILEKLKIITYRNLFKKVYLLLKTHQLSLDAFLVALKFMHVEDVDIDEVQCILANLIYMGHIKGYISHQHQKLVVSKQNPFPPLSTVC
Test: pull-down; GST-ZNHIT1 incubated with His-PCID2 protein, GST pulldown
Settings: both partners purified

binding result: binds
B1: GST-ZNHIT1 (Zinc finger HIT-type containing 1) (natural protein, mouse, UniProt Q8R331 1-154, looked up)
chain: MVEKKPAVRSQDPGQRRVLDRAARQRRINRQLEALENDNFQDDPHAGLPQLGKRLPQFDDDADTGKKKKKTRGDHFKLRFRKNFQALLEEQNLSASEGPNYLTACAGPPSRPQRPFCAVCGFPSPYTCVSCGARYCTVRCLGTHQETRCLKWTV
notes: ZNHIT1 (Zinc finger HIT-type containing 1, p18^hamlet), mouse Znhit1 cloned into pGEX-6P-1; Vector pGEX-6P-1; also called GST-tagged ZNHIT1; p18^hamlet; source: E. coli, purified (Glutathione Sepharose 4B)
